The text below walks through data of publication PMC3222324, “PEGylating a bacteriophage endolysin inhibits its bactericidal activity” (AMB Express, 2011).

This data set deals with the molecule itself. Kind of data set: non-reducing SDS-PAGE; purified enzyme, not reduced; 37 kDa and 74 kDa bands (Figure 1, lane 2).

B1: Cpl-1^C45S;D194C (enzyme, pneumococcal phage, UniProt P15057 1-339, looked up)
chain: MVKKNDLFVDVSSHNGYDITGILEQMGTTNTIIKISESTTYLNPSLSAQVEQSNPIGFYHFARFGGDVAEAEREAQFFLDNVPMQVKYLVLDYEDDPSGDAQANTNACLRFMQMIADAGYKPIYYSYKPFTHDNVDYQQILAQFPNSLWIAGYGLNDGTANFEYFPSMDGIRWWQYSSNPFDKNIVLLDDEEDCKPKTAGTWKQDSKGWWFRRNNGSFPYNKWEKIGGVWYYFDSKGYCLTSEWLKDNEKWYYLKDNGAMATGWVLVGSEWYYMDDSGAMVTGWVKYKNNWYYMTNERGNMVSNEFIKSGKGWYFMNTNGELADNPSFTKEPDGLITVA
notes: Cpl-1, pneumococcal phage lysin (endolysin); gene originally carried on plasmid pJML6; expected 37 kDa band; Purified preparation holds the 37 kDa monomer and a 74 kDa disulfide-linked dimer; construct described in Resch et al., 2011; source: E. coli DH5α, purified (DEAE-Sepharose, eluted with choline)
Take B1: the “stoichiometry N” value is 2.

As a reminder, the stoichiometry N is a count of units in the complex or per binding partner.
